Our source for the pKa values is article PMC11995678.

Where two headings read alike, the source gives them in different places.

For data set [1], the target named is T1, His662 (UniProt position 662, MKQVKHIPESK). As to the kind of experiment: NMR. The note with it: 35 °C (default for NMR experiments; not restated for the titration), 50 mM NaCl, 20 mM Tris, 10 mM CHAPS, no CaCl2, formate and imidazole included as internal pH indicators, pH adjusted with 1 M HCl, Ca2+-free (apo), Ca2+-binding-deficient mutant, folded.
The target of data set [2] is T1, His662. The note with it: cited from earlier work.

Take “LETM1 F-EF-hand domain D676A/N678A (AEA) mutant (Homo sapiens; D676A;N678A)”: the pKa with His662 [1] came out at 6.58 ± 0.06.

In the case of “LETM1 F-EF-hand domain, wild type (Homo sapiens)”, the pKa is recorded as approximately 6.28 with His662 [2] (Ca2+-bound (holo) WT) and approximately 6.39 in the data set with His662 [2] (Ca2+-free (apo) WT).

A word on the pKa: it is the negative logarithm of the acid dissociation constant.
